Target: Sulfolobus acidocaldarius soluble FlaF (sFlaF) (Sulfolobus acidocaldarius)
Assay: SEC

stoichiometry N: 2
Substance: Sulfolobus acidocaldarius soluble FlaF (sFlaF) (domain or fragment)
